{"source": "paper PMC7734621", "target": "Minerva virus protease (MVpro), NS6 3C-like protease of a GII.4 norovirus (Minerva virus (norovirus GII.4, 2006b variant))", "test": "SEC"}
{"substance": "Minerva virus protease (MVpro), NS6 3C-like protease of a GII.4 norovirus (enzyme)", "values": [{"measurement": "stoichiometry N", "result": 2}]}
